pKd: −log10 of the molar value.
Molecular target: human neonatal Fc receptor (hFcRn) (human) (UniProt P55899)
Test: SPR

pKd: 6.27
Substance: 3F6-hIgG1 (antibody)

Reference: article PMC8795526
